Positions count from the first letter of the chain named.
B1: 25B05_H4-L1 (antibody, V domains shown)
VH: EVQLVQSGAEVKKPGASVKVSCKASGYTFTDYFMNWVRQAPGQRLEWMGVINPHNGGTSYSQKFQGRVTLTVDKSSSTAYMELSSLRSEDTAVYYCARRPLGSDYWGQGTTVTVSS
VL: DIQMTQSPSSVSASVGDRVTITCKASQNVGTAVAWYQQKPGKAPKLLIYSASSRYTGVPSRFSGSGSGTDFTLTISSLQPEDFATYYCQQYSSYPLTFGQGTKLEIK
B2: 33D03_H5-L4 (antibody, V domains shown)
VH: EVQLVQSGAEVKKPGASVKVSCKASGYTFTDYYLNWVRQAPGQRLEWMGIINPYNGGTNYNQRFKGRVTLTVDKSSSTAYMELSSLRSEDTAVYYCASEGLRTWFTYWGQGTLVTVSS
VL: DIVMTQSPDSLAVSLGERATISCKSSQSLSNSGNQKIYLAWYQQKPGQPPKLLIYGASSRESGVPDRFSGSGSEIDFTLTISSLQAEDVAVYYCQNDHSHPFTFGQGTKLEIK
B3: 33D03_H3-L4 (antibody, V domains shown)
VH: B2 VH with E1Q, N61S, R63K, K65Q, L70I
VL: B2 VL
B4: 33D03_H5-L1 (antibody, V domains shown)
VH: B2 VH
VL: B2 VL with S22N, E74G, I75T
B5: 25B05_H3-L3 (antibody, V domains shown)
VH: B1 VH with L70I
VL: B1 VL with G57E, S60D
B6: 25B05_H4-L4 (antibody, V domains shown)
VH: B1 VH
VL: B1 VL with Q3V, G57E, S60D
B7: 33D03_H1-L2 (antibody, V domains shown)
VH: B2 VH with E1Q, N61S, R63K, K65Q, L70I, V72R, K74T, S76A
VL: B2 VL with E74G, I75T
B8: 33D03_H5-L3 (antibody, V domains shown)
VH: B2 VH
VL: B2 VL with S22N
B9: 33D03_H1-L1 (antibody, V domains shown)
VH: B2 VH with E1Q, N61S, R63K, K65Q, L70I, V72R, K74T, S76A
VL: B2 VL with S22N, E74G, I75T
B10: 25B05_H1-L1 (antibody, V domains shown)
VH: B1 VH with E1Q, L70I, V72R, K74T, S76A
VL: B1 VL
B11: 25B05_H1-L2 (antibody, V domains shown)
VH: B1 VH with E1Q, L70I, V72R, K74T, S76A
VL: B1 VL with Q3V
B12: 25B05_H1-L4 (antibody, V domains shown)
VH: B1 VH with E1Q, L70I, V72R, K74T, S76A
VL: B1 VL with Q3V, G57E, S60D

Target: human VWF (human)
Sequence (P04275 whole entry): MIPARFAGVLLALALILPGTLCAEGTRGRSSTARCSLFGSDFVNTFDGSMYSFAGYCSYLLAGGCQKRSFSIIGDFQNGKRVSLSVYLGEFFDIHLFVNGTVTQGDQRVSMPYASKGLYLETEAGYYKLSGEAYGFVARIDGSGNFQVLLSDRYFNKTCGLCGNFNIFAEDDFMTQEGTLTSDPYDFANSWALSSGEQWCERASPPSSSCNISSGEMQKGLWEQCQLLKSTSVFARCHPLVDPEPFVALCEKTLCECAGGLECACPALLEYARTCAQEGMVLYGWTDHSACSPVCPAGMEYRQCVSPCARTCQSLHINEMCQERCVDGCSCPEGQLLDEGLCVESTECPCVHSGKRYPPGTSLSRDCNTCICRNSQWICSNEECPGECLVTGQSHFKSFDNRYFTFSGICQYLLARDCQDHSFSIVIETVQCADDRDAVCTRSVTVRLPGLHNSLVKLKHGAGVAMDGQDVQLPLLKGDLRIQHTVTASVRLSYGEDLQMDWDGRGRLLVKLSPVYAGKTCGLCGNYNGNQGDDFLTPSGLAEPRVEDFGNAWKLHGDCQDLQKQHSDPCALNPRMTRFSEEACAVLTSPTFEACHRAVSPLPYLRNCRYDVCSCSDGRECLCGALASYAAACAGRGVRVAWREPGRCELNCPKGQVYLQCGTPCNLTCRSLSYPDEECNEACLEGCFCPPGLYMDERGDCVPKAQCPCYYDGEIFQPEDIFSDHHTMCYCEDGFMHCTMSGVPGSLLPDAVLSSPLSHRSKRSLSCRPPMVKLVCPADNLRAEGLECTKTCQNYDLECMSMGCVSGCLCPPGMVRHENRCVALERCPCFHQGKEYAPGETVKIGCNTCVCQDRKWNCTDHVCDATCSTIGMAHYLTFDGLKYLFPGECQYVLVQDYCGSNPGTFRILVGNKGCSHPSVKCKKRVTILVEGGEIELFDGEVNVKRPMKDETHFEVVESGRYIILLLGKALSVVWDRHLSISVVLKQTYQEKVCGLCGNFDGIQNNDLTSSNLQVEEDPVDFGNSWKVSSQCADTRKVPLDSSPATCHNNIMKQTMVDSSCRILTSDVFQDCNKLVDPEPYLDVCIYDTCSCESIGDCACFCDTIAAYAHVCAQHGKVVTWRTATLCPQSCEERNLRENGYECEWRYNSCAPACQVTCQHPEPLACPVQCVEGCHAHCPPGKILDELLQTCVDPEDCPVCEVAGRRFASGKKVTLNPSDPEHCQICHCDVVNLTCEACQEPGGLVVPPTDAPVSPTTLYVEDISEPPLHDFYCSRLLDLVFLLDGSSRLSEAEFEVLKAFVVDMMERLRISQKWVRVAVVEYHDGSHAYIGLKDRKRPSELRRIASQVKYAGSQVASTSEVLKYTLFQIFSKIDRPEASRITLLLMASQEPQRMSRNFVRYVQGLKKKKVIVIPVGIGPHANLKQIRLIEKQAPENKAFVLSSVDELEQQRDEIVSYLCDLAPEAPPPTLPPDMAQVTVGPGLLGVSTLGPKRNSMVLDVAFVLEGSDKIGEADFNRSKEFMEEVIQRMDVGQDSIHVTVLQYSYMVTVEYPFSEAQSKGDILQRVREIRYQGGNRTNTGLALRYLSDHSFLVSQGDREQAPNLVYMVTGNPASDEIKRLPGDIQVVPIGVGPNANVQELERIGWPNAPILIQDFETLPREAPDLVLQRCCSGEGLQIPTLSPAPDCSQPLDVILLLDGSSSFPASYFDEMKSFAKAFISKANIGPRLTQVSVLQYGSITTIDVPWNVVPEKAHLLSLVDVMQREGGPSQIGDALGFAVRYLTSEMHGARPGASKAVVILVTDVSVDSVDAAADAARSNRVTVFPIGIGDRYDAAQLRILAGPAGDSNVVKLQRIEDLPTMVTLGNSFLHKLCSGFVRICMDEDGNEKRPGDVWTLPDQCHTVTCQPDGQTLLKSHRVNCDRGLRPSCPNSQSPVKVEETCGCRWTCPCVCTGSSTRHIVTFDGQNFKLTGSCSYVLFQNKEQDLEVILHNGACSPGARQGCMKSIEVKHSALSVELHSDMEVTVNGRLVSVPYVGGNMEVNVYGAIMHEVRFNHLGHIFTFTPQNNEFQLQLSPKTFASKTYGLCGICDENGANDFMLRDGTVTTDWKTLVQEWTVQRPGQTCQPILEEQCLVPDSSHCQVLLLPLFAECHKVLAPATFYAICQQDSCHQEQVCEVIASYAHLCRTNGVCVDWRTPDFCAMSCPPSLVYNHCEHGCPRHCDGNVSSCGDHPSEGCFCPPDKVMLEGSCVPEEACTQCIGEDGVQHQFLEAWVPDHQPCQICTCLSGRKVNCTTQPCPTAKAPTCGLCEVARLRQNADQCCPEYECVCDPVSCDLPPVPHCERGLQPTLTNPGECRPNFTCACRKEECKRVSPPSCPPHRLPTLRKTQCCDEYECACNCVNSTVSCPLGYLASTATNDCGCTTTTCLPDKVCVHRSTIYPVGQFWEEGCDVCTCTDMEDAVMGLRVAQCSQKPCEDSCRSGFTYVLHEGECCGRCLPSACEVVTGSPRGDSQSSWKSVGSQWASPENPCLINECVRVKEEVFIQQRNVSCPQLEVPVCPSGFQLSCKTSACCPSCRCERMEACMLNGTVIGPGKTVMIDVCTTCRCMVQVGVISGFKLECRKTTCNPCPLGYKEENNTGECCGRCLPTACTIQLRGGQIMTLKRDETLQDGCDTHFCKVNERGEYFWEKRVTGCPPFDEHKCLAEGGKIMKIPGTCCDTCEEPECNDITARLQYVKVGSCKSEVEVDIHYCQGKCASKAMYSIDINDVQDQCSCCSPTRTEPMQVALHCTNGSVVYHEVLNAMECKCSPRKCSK
Assay: ELISA

Binder	EC50
B1	0.0385 µg/mL
B2	0.0365 µg/mL
B3	0.0434 µg/mL
B4	0.0297 µg/mL
B5	0.0434 µg/mL
B6	0.0264 µg/mL
B7	0.0453 µg/mL
B8	0.0335 µg/mL
B9	0.0437 µg/mL
B10	0.0312 µg/mL
B11	0.0334 µg/mL
B12	0.0344 µg/mL
